# How the values were obtained:
# [1] = molecular target: ARC40-GFP bait (S. cerevisiae ARC40, member of the Arp2/3 complex, fused with a C-terminal GFP epitope tag) (Saccharomyces cerevisiae) (UniProt P38328); assay: in vivo mRNA display co-purification, pooled yeast library, anti-GFP bead IP of ARC40-GFP, NGS read-out
# [2] = molecular target: ARC40-GFP bait (S. cerevisiae ARC40, member of the Arp2/3 complex, fused with a C-terminal GFP epitope tag) (Saccharomyces cerevisiae) (UniProt P38328); assay: low-throughput in vivo mRNA display co-purification, individually cloned ORFs, anti-GFP bead IP of ARC40-GFP
Substance,Display Score [1],Display Score [2]
in vivo mRNA display library protein ARC19 (MCP-ARC19 fusion with purification tag) (from UniProt P33204 1-171),3.9,–
in vivo mRNA display library protein ARC18 (MCP-ARC18 fusion with purification tag) (from UniProt Q05933 1-178),3.3,–
in vivo mRNA display library protein ARP2 (MCP-ARP2 fusion with purification tag) (from UniProt P32381 1-391),0.55,1.8

# The next lines start with the values.
Display Score [1],Display Score [2],Substance
3.7,–,in vivo mRNA display library protein ARC35 (MCP-ARC35 fusion with purification tag) (from UniProt P53731 1-342)
–,1.9,"in vivo mRNA display protein MYO3 (MCP-MYO3 fusion, individually cloned for the low-throughput experiment) (from UniProt P36006 1-1272)"
